The source of these data is US20130266536A1, “METHOD OF USE OF STABILIZED PLANT-DERIVED GROWTH FACTOR IN SKIN CARE” (priority 2010, published 2013).

The series can be described thus: Stability challenge test of plant-made EGF in formulation 1. It counts as physicochemical. To be noted: reconstituted freeze-dried non-glycosylated EGF in formulation 1; +4° C., RT and +37° C.; up to 3 weeks; gel, FIG. 5. The source says: Size markers 11 and 17 kDa in the first lane. […] (Ref.http://www.cellsciences.com/PDF/CRE100.pdf)

“plant-made EGF: purified, reconstituted freeze-dried, non-glycosylated, plant-made EGF in a formulation as in Example 5, formulation 1”: the “stability of the growth factor” value was “excellent stability”.
